Reference: patent US6762284 (ONYX PHARMACEUTICALS, dated 2004)
Where two headings read alike, the source gives them in different places.

Legend:
Assay in all cases: yeast two-hybrid
[1] = biological target: T1, p85 C-terminal SH2 domain (AA 620-727) (human, UniProt P04386 1-147; P27986 620-724)
[2] = biological target: T2, p85 SH3 domain (AA 6-117) (human, UniProt P04386 1-147; P27986 6-117)
[3] = biological target: T3, p85 Bcr homology domain (AA 118-340) (human, UniProt P04386 1-147; P27986 118-340)
[4] = biological target: T4, p85 full length (AA 6-727) (human, UniProt P04386 1-147; P27986 6-724)
T4 construct: also called GAL4-p85

[5] = biological target: p85 SH2 domains and inter SH2 domain (AA 263-727) (human, UniProt P04386 1-147; P27986 263-724)
[6] = biological target: T5, p85 N-terminal SH2 and inter SH2 domain (AA 263-620) (human, UniProt P04386 1-147; P27986 263-620)
T5 construct: Two-hybrid bait fusion

[7] = biological target: T1, p85 C-terminal SH2 domain (AA 620-727); remark: listed apart in the source
[8] = biological target: T2, p85 SH3 domain (AA 6-117); remark: listed apart in the source
[9] = biological target: T3, p85 Bcr homology domain (AA 118-340); remark: listed apart in the source

Measured: binding result

B1: PIKAP AA 517-589 (other, not shown: large carriers)
chain: DRLIALKAVTNFGVPVEVFDSEEAEIFQKKLDETTRLLRELQEAQNERLSTRPPGNMICLLGPSSEKCILLNK
notes: The text speaks of the last 74 amino acids, while 517-589 counts 73 residues; also called last 74 amino acids of the c-terminal end of PIKAP
no binding: [1] | [2] | [3]

B2: PIKAP AA 277-360 (other, not shown: large carriers)
chain: EDSGDAEAHAFKSPSKENKKKDKDMLEDKFKSNNLEREQEQLDRIVKESGGKLTRRLVNSQCEFERRKPDGTTTLGLLHPVDPI
not listed: [7] | [8] | [9]
no binding: all other assays above

B3: PIKAP AA 361-516 (other, not shown: large carriers)
chain: VGEPGYCLVRLGMTTGRLQSGVNTLQGFKEDKRNKVTPVLYLNYGPYSSYAPHYDSTFANISKDDSDLIYSTYGEDSDLPSDFSIHEFLATCQDYPYVMADSLLDVLTKGGHSRTLQEMEMSLPEDEGHTRTLDTGKEMEQITEVEPPGRLDSSTQ
not listed: [7] | [8] | [9]
no binding: all other assays above

B4: PIKAP AA 277-589 (other, not shown: large carriers)
chain: EDSGDAEAHAFKSPSKENKKKDKDMLEDKFKSNNLEREQEQLDRIVKESGGKLTRRLVNSQCEFERRKPDGTTTLGLLHPVDPIVGEPGYCLVRLGMTTGRLQSGVNTLQGFKEDKRNKVTPVLYLNYGPYSSYAPHYDSTFANISKDDSDLIYSTYGEDSDLPSDFSIHEFLATCQDYPYVMADSLLDVLTKGGHSRTLQEMEMSLPEDEGHTRTLDTGKEMEQITEVEPPGRLDSSTQDRLIALKAVTNFGVPVEVFDSEEAEIFQKKLDETTRLLRELQEAQNERLSTRPPGNMICLLGPSSEKCILLNK
notes: Two-hybrid prey fusion expressed in yeast YGH1; also called original isolate from two hybrid screening; PI3K Associated Protein AA 277-589
no binding: [7] | [8] | [9]
